For the assay, the target named is T1, Tau 181多肽 (also: biotin coupling for SA coating, place not given here).
T1 peptide: CPPAPKTPP
The experiment in a line: indirect ELISA, cell supernatants on SA+biotin peptide plates (m1 as a member of the 80 antibodies).

Ends that are not written are not given here.

The results in this text go back to CN117820472A (VAZYME MEDICAL CO LTD; HUNAN NOVAZYME MEDICAL TECH CO LTD, dated 2024).

B1: Anti-p-Tau 181-rRmab-1 (antibody, V domains shown)
VH: CQSVEESGGRLVTPGTPLTLTCTVSGFSLSIYAMSWVRQAPGKGLEYIGYIVSSGSTYYASWAKGRVTISKTSSTTVDLKITSPATEDTATYFCARGSITGFTRLELWGQGTLVTVSS
VL: DIVMTQTPASVEAAVGGTVTIKCQASESISSGLAWYQQKPGQPPKLLIYGASTLASGVPSRFKGSRSGTEYTLTISDLECADAATYYCQSYYYSSGSSLLYGFGGGTEVVVK
notes: Recombinant rabbit monoclonal antibody from single B cell cloning, expressed in HEK293 cells and purified on protein A. Only the variable domains are printed
With B1, the binding result was “no binding”.
